Assay results as given in US7582460B2 (Wacker Chemie AG, priority 2003, dated 2009).
Residue numbers refer to the chain shown, from its start. Names and notes keep the numbering of the source.

B1: serA: Escherichia coli wild-type 3-phosphoglycerate dehydrogenase (PGD, SEQ ID NO: 2) encoded by the serA gene (protein, listed as Escherichia coli)
chain: MAKVSLEKDKIKFLLVEGVHQKALESLRAAGYTNIEFHKGALDDEQLKESIRDAHFIGLRSRTHLTEDVINAAEKLVAIGCFCIGTNQVDLDAAAKRGIPVFNAPFSNTRSVAELVIGELLLLLRGVPEANAKAHRGVWNKLAAGSFEARGKKLGIIGYGHIGTQLGILAESLGMYVYFYDIENKLPLGNATQVQHLSDLLNMSDVVSLHVPENPSTKNMMGAKEISLMKPGSLLINASRGTVVDIPALCDALASKHLAGAAIDVFPTEPATNSDPFTSPLCEFDNVLLTPHIGGSTQEAQENIGLEVAGKLIKYSDNGSTLSAVNFPEVSLPLHGGRRLMHIHENRPGVLTALNKIFAEQGVNIAAQYLQTSAQMGYVVIDIEADEDVAEKALQAMKAIPGTIRARLLY
B2: serA416: E. coli PGD variant with replacement G349R (protein, UniProt P0A9T0 2-410, looked up, variant G349R)
D-3-phosphoglycerate …: AKVSLEKDKIKFLLVEGVHQKALESLRAAGYTNIEFHKGALDDEQLKESIRDAHFIGLRSRTHLTEDVINAAEKLVAIGCFCIGTNQVDLDAAAKRGIPVFNAPFSNTRSVAELVIGELLLLLRGVPEANAKAHRGVWNKLAAGSFEARGKKLGIIGYGHIGTQLGILAESLGMYVYFYDIENKLPLGNATQVQHLSDLLNMSDVVSLHVPENPSTKNMMGAKEISLMKPGSLLINASRGTVVDIPALCDALASKHLAGAAIDVFPTEPATNSDPFTSPLCEFDNVLLTPHIGGSTQEAQENIGLEVAGKLIKYSDNGSTLSAVNFPEVSLPLHGGRRLMHIHENRPRVLTALNKIFAEQGVNIAAQYLQTSAQMGYVVIDIEADEDVAEKALQAMKAIPGTIRARLLY
B3: serA219: E. coli PGD variant with replacement T372G (protein, UniProt P0A9T0 2-410, looked up, variant T372G)
D-3-phosphoglycerate …: B2 D-3-phosphoglycerate … with R348G, T371G
B4: serA226: E. coli PGD variant with replacement T372L (protein, UniProt P0A9T0 2-410, looked up, variant T372L)
D-3-phosphoglycerate …: B2 D-3-phosphoglycerate … with R348G, T371L
B5: serA222: E. coli PGD variant with replacement T372V (protein, UniProt P0A9T0 2-410, looked up, variant T372V)
D-3-phosphoglycerate …: B2 D-3-phosphoglycerate … with R348G, T371V
B6: serA210: E. coli PGD variant with replacement T372W (protein, UniProt P0A9T0 2-410, looked up, variant T372W)
D-3-phosphoglycerate …: B2 D-3-phosphoglycerate … with R348G, T371W
B7: serA420: E. coli PGD variant with replacement G349H (protein, UniProt P0A9T0 2-410, looked up, variant G349H)
D-3-phosphoglycerate …: B2 D-3-phosphoglycerate … with R348H
B8: serA214: E. coli PGD variant with replacement T372A (protein, UniProt P0A9T0 2-410, looked up, variant T372A)
D-3-phosphoglycerate …: B2 D-3-phosphoglycerate … with R348G, T371A
B9: serA221: E. coli PGD variant with replacement T372Q (protein, UniProt P0A9T0 2-410, looked up, variant T372Q)
D-3-phosphoglycerate …: B2 D-3-phosphoglycerate … with R348G, T371Q
B10: serA46: E. coli PGD variant with replacement G349M (protein, UniProt P0A9T0 2-410, looked up, variant G349M)
D-3-phosphoglycerate …: B2 D-3-phosphoglycerate … with R348M
B11: serA422: E. coli PGD variant with replacement G349Q (protein, UniProt P0A9T0 2-410, looked up, variant G349Q)
D-3-phosphoglycerate …: B2 D-3-phosphoglycerate … with R348Q
B12: serA208: E. coli PGD variant with replacement T372H (protein, UniProt P0A9T0 2-410, looked up, variant T372H)
D-3-phosphoglycerate …: B2 D-3-phosphoglycerate … with R348G, T371H
B13: serA419: E. coli PGD variant with replacement G349F (protein, UniProt P0A9T0 2-410, looked up, variant G349F)
D-3-phosphoglycerate …: B2 D-3-phosphoglycerate … with R348F
B14: serA418: E. coli PGD variant with replacement G349Y (protein, UniProt P0A9T0 2-410, looked up, variant G349Y)
D-3-phosphoglycerate …: B2 D-3-phosphoglycerate … with R348Y
B15: serA40: E. coli PGD variant, mutation at codon 349 printed G349 (G349D per Table 3) (protein, UniProt P0A9T0 2-410, looked up, variant G349D)
D-3-phosphoglycerate …: B2 D-3-phosphoglycerate … with R348D
B16: serA212: E. coli PGD variant with replacement T372F (protein, UniProt P0A9T0 2-410, looked up, variant T372F)
D-3-phosphoglycerate …: B2 D-3-phosphoglycerate … with R348G, T371F
B17: serA417: E. coli PGD variant with replacement G349W (protein, UniProt P0A9T0 2-410, looked up, variant G349W)
D-3-phosphoglycerate …: B2 D-3-phosphoglycerate … with R348W
B18: serA421: E. coli PGD variant with replacement G349N (protein, UniProt P0A9T0 2-410, looked up, variant G349N)
D-3-phosphoglycerate …: B2 D-3-phosphoglycerate … with R348N
B19: serA20: E. coli PGD variant with replacement T372I (protein, UniProt P0A9T0 2-410, looked up, variant T372I)
D-3-phosphoglycerate …: B2 D-3-phosphoglycerate … with R348G, T371I
B20: serA228: E. coli PGD variant with replacement T372M (protein, UniProt P0A9T0 2-410, looked up, variant T372M)
D-3-phosphoglycerate …: B2 D-3-phosphoglycerate … with R348G, T371M
B21: serA231: E. coli PGD variant with replacement T372C (protein, UniProt P0A9T0 2-410, looked up, variant T372C)
D-3-phosphoglycerate …: B2 D-3-phosphoglycerate … with R348G, T371C
B22: serA45: E. coli PGD variant with replacement G349I (protein, UniProt P0A9T0 2-410, looked up, variant G349I)
D-3-phosphoglycerate …: B2 D-3-phosphoglycerate … with R348I
B23: serA218: E. coli PGD variant with replacement T372N (protein, UniProt P0A9T0 2-410, looked up, variant T372N)
D-3-phosphoglycerate …: B2 D-3-phosphoglycerate … with R348G, T371N
B24: serA47: E. coli PGD variant with replacement G349E (protein, UniProt P0A9T0 2-410, looked up, variant G349E)
D-3-phosphoglycerate …: B2 D-3-phosphoglycerate … with R348E
B25: serA11: E. coli PGD variant with replacement T372Y (protein, UniProt P0A9T0 2-410, looked up, variant T372Y)
D-3-phosphoglycerate …: B2 D-3-phosphoglycerate … with R348G, T371Y
B26: serA445: E. coli PGD variant with replacement G349C (protein, UniProt P0A9T0 2-410, looked up, variant G349C)
D-3-phosphoglycerate …: B2 D-3-phosphoglycerate … with R348C
B27: serA220: E. coli PGD variant with replacement T372S (protein, UniProt P0A9T0 2-410, looked up, variant T372S)
D-3-phosphoglycerate …: B2 D-3-phosphoglycerate … with R348G, T371S

These molecules were tested on 3-phosphoglycerate dehydrogenase (PGD) (assay: PGD enzyme activity in crude extracts (McKitrick and Pizer test)). Conditions: crude extract of strain expressing plasmid-encoded serA allele; backward reaction, NADH oxidation at 340 nm.
Type: biochemical, Escherichia coli
Description: (§1) For example, the PGD activity can be determined in analogy with the method described by McKitrick and Pizer (1980, J. Bacteriol. 141:235-245). The backward reaction is used to measure the enzyme activity in an assay sample which contains phosphohydroxypyruvate and NADH/H^+. The reaction is started by adding enzyme and is monitored in a spectrophotometer by way of the decrease in extinction at 340 nm which is caused by oxidation of the NADH/H^+.
(§2) At an optical density of 1.0, serA expression was in each case induced by adding 0.4 mM […] and the culture was incubated for a further 3 hours. The cells were subsequently harvested by centrifugation, washed and resuspended in 2 ml of buffer (100 mM K-phosphate, pH 7.0; 10 mM MgCl2; 1 mM dithiothreitol). The cells were disrupted using a French press (Spectronic Instruments, Inc. Rochester, N.Y., USA) at a pressure of 18 000 psi. The crude extracts were clarified by centrifugation at 30 000 g and PGD activity was determined using the McKitrick and Pizer test (1980, J. Bacteriol. 141:235-245).
Work on B1 yielded an Activity of 0.05 units/mg. Work on B2 yielded an Activity of 0.04 units/mg. In the case of B3, the Activity is reported as 0.05 units/mg. For B4, the Activity was 0.04 units/mg. B5 showed an Activity of 0.05 units/mg. In the case of B6, the Activity is reported as 0.04 units/mg. Work on B7 yielded an Activity of 0.05 units/mg. B8 showed an Activity of 0.04 units/mg. With B9 the Activity was 0.05 units/mg. In the case of B10, the Activity is reported as 0.05 units/mg. B11 gave an Activity of 0.05 units/mg. Molecule B12 has an Activity of 0.05 units/mg. With B13 the Activity was 0.05 units/mg. Work on B14 yielded an Activity of 0.05 units/mg. In the case of B15, the Activity is reported as 0.05 units/mg. B16 showed an Activity of 0.05 units/mg. For B17, the Activity was 0.02 units/mg. Work on B18 yielded an Activity of 0.05 units/mg. For B19, the Activity was 0.05 units/mg. Molecule B20 has an Activity of 0.03 units/mg. Molecule B21 has an Activity of 0.02 units/mg. B22 gave an Activity of 0.05 units/mg. For B23, the Activity was 0.05 units/mg. Work on B24 yielded an Activity of 0.05 units/mg. Molecule B25 has an Activity of 0.05 units/mg. B26 showed an Activity of 0.04 units/mg. With B27 the Activity was 0.05 units/mg.

These molecules were tested against 3-phosphoglycerate dehydrogenase (PGD) (assay: Inhibition of PGD activity by L-serine, inhibitor constant Ki). Conditions: Ki = inhibitor concentration at which activity is 50% of activity without inhibitor.
Type: biochemical, Escherichia coli
Description: as §1, §2
For B1, the Ki was < 0.1 mM. B2 gave a Ki of 15 mM. In the case of B3, the Ki is reported as 8 mM. B4 gave a Ki of 40 mM. In the case of B5, the Ki is reported as 40 mM. Work on B6 yielded a Ki of 60 mM. Molecule B7 has a Ki of 10 mM. Work on B8 yielded a Ki of 10 mM. B9 showed a Ki of 100 mM. In the case of B10, the Ki is reported as 1 mM. With B11 the Ki was 15 mM. B12 was tested, and the Ki was 80 mM. In the case of B13, the Ki is reported as 10 mM. Work on B14 yielded a Ki of 6 mM. B15 was tested, and the Ki was 25 mM. Work on B16 yielded a Ki of 60 mM. B17 was tested, and the Ki was 8 mM. B18 was tested, and the Ki was 15 mM. Work on B19 yielded a Ki of 40 mM. B20 was tested, and the Ki was 60 mM. B21 was tested, and the Ki was 3 mM. Molecule B22 has a Ki of 5 mM. In the case of B23, the Ki is reported as 100 mM. Work on B24 yielded a Ki of 20 mM. In the case of B25, the Ki is reported as 35 mM. B26 was tested, and the Ki was 5 mM. Work on B27 yielded a Ki of 1 mM.
